The values that follow come from article PMC10813304.

Assay [1] concerns the target ΔLTRIN, truncated C-terminal LTRIN (lymphotoxin β receptor inhibitor), residues 86-210 (Aedes aegypti). The assay is described as follows: AUC; sedimentation velocity, 0.5 mg/mL, 25 mM Tris HCl, 50 mM NaCl pH 7.5, 40,000 rpm, 20 °C, continuous c(s) distribution.
Assay [2] has the same target. The assay is described as follows: dynamic and static light scattering; DynaPro Nanostar; ΔLTRIN at 1 mg/mL to 20 mg/mL; also with Ca2+ or EGTA without effect.
For assay [3] the target is unchanged. Nature of the assay: SEC; Superdex 75 after Ni-NTA and ion exchange; elution against a standard curve (between 44 kDa and 17 kDa); also with Ca2+ or EGTA/EDTA without effect. Background: In gel filtration, larger molecules generally elute earlier.
For assay [4], the target named is C133Q ΔLTRIN (Aedes aegypti). The assay is described as follows: dynamic and static light scattering; DynaPro Nanostar; ΔLTRIN at 1 mg/mL to 20 mg/mL; also with Ca2+ or EGTA without effect.
The target of assay [5] is C133Q ΔLTRIN (Aedes aegypti). The assay is described as follows: SEC; Superdex 75 after Ni-NTA and ion exchange; elution against a standard curve (between 44 kDa and 17 kDa); also with Ca2+ or EGTA/EDTA without effect.

Broadly, the stoichiometry N is a count of units in the complex or per binding partner.

As for “ΔLTRIN, truncated C-terminal LTRIN (lymphotoxin β receptor inhibitor), residues 86-210 (domain or fragment)”, the stoichiometry N in assay [1], in assay [2] and in assay [3] was 2 each time.

Turning to C133Q ΔLTRIN (domain or fragment), the stoichiometry N in assay [4] and in assay [5] was 2 in each case.
